As a reminder, the stoichiometry N is the number of molecules, sites or subunits per partner or assembly.

This series deals with the molecule itself. The series is described as follows: sucrose velocity gradient sedimentation.

B1: wild-type alcohol oxidase of Pichia pastoris (AOX-WT) (enzyme, P. pastoris, UniProt F2QY27 1-663, looked up)
chain: MAIPEEFDILVLGGGSSGSCIAGRLANLDHSLKVGLIEAGENNLNNPWVYLPGIYPRNMKLDSKTASFYTSNPSPHLNGRRAIVPCANVLGGGSSINFMMYTRGSASDYDDFQAEGWKTKDLLPLMKKTETYQRACNNPDIHGFEGPIKVSFGNYTYPVCQDFLRASESQGIPYVDDLEDLVTAHGAEHWLKWINRDTGRRSDSAHAFVHSTMRNHDNLYLICNTKVDKIIVEDGRAAAVRTVPSKPLNPKKPSHKIYRARKQIVLSCGTISSPLVLQRSGFGDPIKLRAAGVKPLVNLPGVGRNFQDHYCFFSPYRIKPQYESFDDFVRGDAEIQKRVFDQWYANGTGPLATNGIEAGVKIRPTPEELSQMDESFQEGYREYFEDKPDKPVMHYSIIAGFFGDHTKIPPGKYMTMFHFLEYPFSRGSIHITSPDPYAAPDFDPGFMNDERDMAPMVWAYKKSRETARRMDHFAGEVTSHHPLFPYSSEARALEMDLETSNAYGGPLNLSAGLAHGSWTQPLKKPTAKNEGHVTSNQVELHPDIEYDEEDDKAIENYIREHTETTWHCLGTCSIGPREGSKIVKWGGVLDHRSNVYGVKGLKVGDLSVCPDNVGCNTYTTALLIGEKTATLVGEDLGYSGEALDMTVPQFKLGTYEKTGLARF
Turning to B1, the “stoichiometry N” value turned out to be 8.

B2: AOX with the COOH-terminal LARF replaced by RSC (AOX–RSC, pHWO41) (enzyme, P. pastoris)
chain: MAIPEEFDILVLGGGSSGSCIAGRLANLDHSLKVGLIEAGENNLNNPWVYLPGIYPRNMKLDSKTASFYTSNPSPHLNGRRAIVPCANVLGGGSSINFMMYTRGSASDYDDFQAEGWKTKDLLPLMKKTETYQRACNNPDIHGFEGPIKVSFGNYTYPVCQDFLRASESQGIPYVDDLEDLVTAHGAEHWLKWINRDTGRRSDSAHAFVHSTMRNHDNLYLICNTKVDKIIVEDGRAAAVRTVPSKPLNPKKPSHKIYRARKQIVLSCGTISSPLVLQRSGFGDPIKLRAAGVKPLVNLPGVGRNFQDHYCFFSPYRIKPQYESFDDFVRGDAEIQKRVFDQWYANGTGPLATNGIEAGVKIRPTPEELSQMDESFQEGYREYFEDKPDKPVMHYSIIAGFFGDHTKIPPGKYMTMFHFLEYPFSRGSIHITSPDPYAAPDFDPGFMNDERDMAPMVWAYKKSRETARRMDHFAGEVTSHHPLFPYSSEARALEMDLETSNAYGGPLNLSAGLAHGSWTQPLKKPTAKNEGHVTSNQVELHPDIEYDEEDDKAIENYIREHTETTWHCLGTCSIGPREGSKIVKWGGVLDHRSNVYGVKGLKVGDLSVCPDNVGCNTYTTALLIGEKTATLVGEDLGYSGEALDMTVPQFKLGTYEKTGRSC
Take B2: the “stoichiometry N” value was 8.
